Publication PMC6591306
One block for each substance: values may come before it.

Legend:
Experiment in all cases: cysteine cross-linking, non-reducing SDS-PAGE, quantification of fluorescent blots
GB2^5.45 = settings: + CuP; cell surface SNAP-GB1 labelled with fluorescent SNAP substrate; no ligand; parent: est. 2; read off a plot
[1] = molecular target: GB1 double cysteine mutant with one cysteine in TM5 and one in TM1 (co-expressed with a non-mutated GB2); settings: + CuP, co-expressed with GB2Ctr, parent: est. 2, read off a plot
GB1 4.52/6.55 = settings: + CuP, co-expressed with GB2Ctr, parent: est. 2, read off a plot
[2] = molecular target: GB2 L711C^6.59 (in GB2^Ctr) (UniProt O88871); settings: + CuP; cell surface SNAP-GB1 labelled with fluorescent SNAP substrate; no ligand; parent: est. 2; read off a plot
GB1 1.45/6.55 = settings: + CuP, co-expressed with GB2Ctr, parent: est. 2, read off a plot
GB2^6.54 = settings: + CuP; cell surface SNAP-GB1 labelled with fluorescent SNAP substrate; no ligand; parent: est. 2; read off a plot
[3] = molecular target: GB1 double cysteine mutant with one cysteine in TM4 and one in TM1 (co-expressed with a non-mutated GB2); settings: + CuP, co-expressed with GB2Ctr, parent: est. 2, read off a plot
GB2^6.55 = settings: + CuP; cell surface SNAP-GB1 labelled with fluorescent SNAP substrate; no ligand; parent: est. 2; read off a plot
[4] = molecular target: double mutant of GB1 carrying one cysteine in TM5 (I771C^5.42) and one in TM7 (L838C^7.34); settings: + CuP, co-expressed with GB2Ctr, parent: est. 2, read off a plot
[5] = molecular target: GB2^5.42 (cysteine mutant of GB2^Ctr at position 5.42) (UniProt O88871); settings: + CuP; cell surface SNAP-GB1 labelled with fluorescent SNAP substrate; no ligand; parent: est. 2; read off a plot
GB2^5.40 = settings: + CuP; cell surface SNAP-GB1 labelled with fluorescent SNAP substrate; no ligand; parent: est. 2; read off a plot
[6] = molecular target: GB1 double cysteine mutant with one cysteine in TM4 and one in TM7 (co-expressed with a non-mutated GB2); settings: + CuP, co-expressed with GB2Ctr, parent: est. 2, read off a plot
GB2^5.41 = settings: + CuP; cell surface SNAP-GB1 labelled with fluorescent SNAP substrate; no ligand; parent: est. 2; read off a plot

other: Change of GB1-GB2 dimer cross-linking (%) (GB2^5.45): 24%
Substance: m1; m2 GB1:5.45 Cys; GB2:5.45 Cys

other: Oligomer (% total GB1) ([1]; + GABA 100 μM): 12 % total GB1
other: Oligomer (% total GB1) ([1]; no agonist): 5 % total GB1
Substance: GB1^Ctr (control GABAB1 subunit: SNAP-tagged rat GB1a truncated in the C-terminal region) 1.45 Cys; I771C

other: Oligomer (% total GB1) (GB1 4.52/6.55; + GABA 100 μM): 21 % total GB1
other: Oligomer (% total GB1) (GB1 4.52/6.55; no agonist): 16 % total GB1
Substance: GB1^Ctr (control GABAB1 subunit: SNAP-tagged rat GB1a truncated in the C-terminal region) 4.52 Cys; 6.55 Cys

other: Change of GB1-GB2 dimer cross-linking (%) [2]: 28%
Substance: m1; m2 GB1:I824C; GB2:L711C

other: Oligomer (% total GB1) (GB1 1.45/6.55; + GABA 100 μM): 4 % total GB1
other: Oligomer (% total GB1) (GB1 1.45/6.55; no agonist): 2.5 % total GB1
Substance: GB1^Ctr (control GABAB1 subunit: SNAP-tagged rat GB1a truncated in the C-terminal region) 1.45 Cys; 6.55 Cys

other: Change of GB1-GB2 dimer cross-linking (%) (GB2^6.54): 23%
Substance: m1; m2 GB1:6.54 Cys; GB2:6.54 Cys

other: Oligomer (% total GB1) ([3]; + GABA 100 μM): 32 % total GB1
other: Oligomer (% total GB1) ([3]; no agonist): 24 % total GB1
Substance: GB1^Ctr (control GABAB1 subunit: SNAP-tagged rat GB1a truncated in the C-terminal region) 1.45 Cys; 4.52 Cys

other: Change of GB1-GB2 dimer cross-linking (%) (GB2^6.55): 32%
Substance: m1; m2 GB1:6.55 Cys; GB2:6.55 Cys

other: Oligomer (% total GB1) ([4]; + GABA 100 μM): 2.5 % total GB1
other: Oligomer (% total GB1) ([4]; no agonist): 1 % total GB1
Substance: GB1^Ctr (control GABAB1 subunit: SNAP-tagged rat GB1a truncated in the C-terminal region) I771C; L838C

other: Change of GB1-GB2 dimer cross-linking (%) [5]: 14%
Substance: m1; m2 GB1:I771C; GB2:5.42 Cys

other: Change of GB1-GB2 dimer cross-linking (%) (GB2^5.40): 12%
Substance: m1; m2 GB1:5.40 Cys; GB2:5.40 Cys

other: Oligomer (% total GB1) ([6]; + GABA 100 μM): 12 % total GB1
other: Oligomer (% total GB1) ([6]; no agonist): 7 % total GB1
Substance: GB1^Ctr (control GABAB1 subunit: SNAP-tagged rat GB1a truncated in the C-terminal region) 4.52 Cys; L838C

other: Change of GB1-GB2 dimer cross-linking (%) (GB2^5.41): 28%
Substance: m1; m2 GB1:5.41 Cys; GB2:5.41 Cys
